Source: patent publication US20250011363A1, “OPTIMIZED SHORTENED PEPTIDE THAT BINDS TO ACETYLCHOLINE RECEPTOR, AND USE THEREOF” (SKINMED CO., LTD., priority 2021, published 2025)

molecular target: acetylcholine receptor (Homo sapiens, UniProt P02708); assay: SPR binding affinity (RU) of optimized 5mer/6mer/7mer peptides, Examples 6-7; details: SPR, peptides at 10 μM; 6mer-2 Bottom sequence
Protocol: Based on the frequencies of occurrence of the top 7 amino acids from Table 7 in Example 5, 600 peptides comprising these amino acids (top combinations) and those comprising the 13 less frequently occurring amino acids (bottom combinations) were synthesized for each series of 5mer, 6mer-1, and 6mer-2. The binding affinity of each sequence for the acetylcholine receptor was measured using Surface Plasmon Resonance (SPR) analysis method. The peptides were tested at a concentration of 10 μM. Additionally, the average binding affinities of the top and bottom combinations in each series are depicted in FIGS. 5-7.
Representative peptides identified in Example 6, two in each library, including 5mers (73, 311) and 6mers-1 (43, 210) and 6mers-2 (136, 233), were compared with the pre-optimized 6mer, 5mer-ND, and Synake.

Sequence of acetylcholine receptor (P02708 21-457): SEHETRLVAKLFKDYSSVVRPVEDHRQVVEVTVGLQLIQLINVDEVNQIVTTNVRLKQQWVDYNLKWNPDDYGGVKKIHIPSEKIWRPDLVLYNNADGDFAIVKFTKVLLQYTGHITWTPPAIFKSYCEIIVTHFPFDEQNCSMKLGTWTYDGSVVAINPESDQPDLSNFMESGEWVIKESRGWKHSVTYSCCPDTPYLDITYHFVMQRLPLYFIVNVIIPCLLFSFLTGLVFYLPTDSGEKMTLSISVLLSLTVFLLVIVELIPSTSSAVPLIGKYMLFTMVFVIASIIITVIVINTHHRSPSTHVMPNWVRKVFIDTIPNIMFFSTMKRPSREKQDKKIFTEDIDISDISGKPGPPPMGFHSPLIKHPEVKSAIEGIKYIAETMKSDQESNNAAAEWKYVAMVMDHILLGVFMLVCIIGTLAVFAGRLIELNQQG

Q: For 6mer-2-1118 (RFDGRR), which Binding affinity is on record?
A: 42 Ru

Q: Which Binding affinity does the source give for 6mer-2-1117 (RMHVKR) here?
A: 21 Ru

Q: How did the Binding affinity turn out when 6mer-2-1082 (KYTERR) was run?
A: 31 Ru

same assay, conditions: SPR, peptides tested at 10 μM; 5mer Top sequence

Q: For 5mer-14 (RWLCK), which Binding affinity is on record?
A: 63 Ru

Q: 5mer-377 (KGFYK) was tested. Which Binding affinity did it give?
A: 67 Ru

Q: With 5mer-351 (KSFSK) as the substance, how does the Binding affinity read?
A: 75 Ru

Q: Which Binding affinity does the source give for 5mer-46 (KRQCK) here?
A: 76 Ru

Q: Which Binding affinity does the source give for 5mer-22 (RQQLK) here?
A: 66 Ru

Q: With 5mer-40 (KSVCR) as the substance, how does the Binding affinity read?
A: 67 Ru

Q: Which Binding affinity does the source give for 5mer-209 (RGVRR) here?
A: 78 Ru

Q: 5mer-108 (KWQLK) was tested. Which Binding affinity did it give?
A: 77 Ru

Q: How did the Binding affinity turn out when 5mer-203 (RQLTR) was run?
A: 78 Ru

Q: With 5mer-50 (KLLCR) as the substance, how does the Binding affinity read?
A: 63 Ru

Q: 5mer-349 (KQVYR) was tested. Which Binding affinity did it give?
A: 50 Ru

Q: Which Binding affinity does the source give for 5mer-418 (RWRTR) here?
A: 53 Ru

Q: How did the Binding affinity turn out when 5mer-372 (RSVCR) was run?
A: 54 Ru

Q: With 5mer-313 (RSQLK) as the substance, how does the Binding affinity read?
A: 75 Ru

Q: 5mer-149 (KQFLR) was tested. Which Binding affinity did it give?
A: 80 Ru

Q: 5mer-423 (RRQLK) was tested. Which Binding affinity did it give?
A: 60 Ru

Q: 5mer-1 (RVQCK) was tested. Which Binding affinity did it give?
A: 54 Ru

Q: How did the Binding affinity turn out when 5mer-333 (RVLQR) was run?
A: 67 Ru

Q: How did the Binding affinity turn out when 5mer-30 (KSQLR) was run?
A: 70 Ru

Q: How did the Binding affinity turn out when 5mer-74 (RQITK) was run?
A: 87 Ru

Q: Which Binding affinity does the source give for 5mer-380 (KRYLK) here?
A: 82 Ru

Q: 5mer-483 (RSISR) was tested. Which Binding affinity did it give?
A: 51 Ru

Q: How did the Binding affinity turn out when 5mer-72 (KLYRR) was run?
A: 50 Ru

Q: With 5mer-385 (RGVYR) as the substance, how does the Binding affinity read?
A: 51 Ru

same assay, conditions: SPR, peptides tested at 10 μM; 5mer Top sequence (top combinations)

Q: How did the Binding affinity turn out when 5mer-569 (RQQRK) was run?
A: 79 Ru

Q: 5mer-547 (KQVTK) was tested. Which Binding affinity did it give?
A: 77 Ru

Q: With 5mer-232 (KWYTR) as the substance, how does the Binding affinity read?
A: 71 Ru

Q: With 5mer-279 (RVVTK) as the substance, how does the Binding affinity read?
A: 56 Ru

Q: For 5mer-573 (RSIYR), which Binding affinity is on record?
A: 84 Ru

Q: With 5mer-512 (RLYLK) as the substance, how does the Binding affinity read?
A: 70 Ru

Q: Which Binding affinity does the source give for 5mer-580 (RGYTR) here?
A: 70 Ru

Q: For 5mer-284 (KQVQR), which Binding affinity is on record?
A: 52 Ru

same assay, conditions: SPR, peptides tested at 10 μM; 6mer-1 Bottom sequence (Table 11)

Q: How did the Binding affinity turn out when 6mer-1-863 (RRCTER) was run?
A: 27 Ru

Q: Which Binding affinity does the source give for 6mer-1-837 (KRDHAK) here?
A: 19 Ru

Q: With 6mer-1-918 (RRESMR) as the substance, how does the Binding affinity read?
A: 33 Ru

Q: How did the Binding affinity turn out when 6mer-1-882 (KKPAMR) was run?
A: 25 Ru

Q: 6mer-1-856 (KRMWFK) was tested. Which Binding affinity did it give?
A: 30 Ru

Q: How did the Binding affinity turn out when 6mer-1-968 (RREDFR) was run?
A: 39 Ru

Q: With 6mer-1-850 (RRNPEK) as the substance, how does the Binding affinity read?
A: 29 Ru

Q: Which Binding affinity does the source give for 6mer-1-868 (KKHHAR) here?
A: 14 Ru

Q: How did the Binding affinity turn out when 6mer-1-892 (RKTEKR) was run?
A: 20 Ru

Q: How did the Binding affinity turn out when 6mer-1-839 (KRNWAK) was run?
A: 29 Ru

Q: For 6mer-1-924 (RKFNWR), which Binding affinity is on record?
A: 29 Ru

Q: For 6mer-1-801 (KKCAVK), which Binding affinity is on record?
A: 18 Ru

same assay, conditions: SPR, peptides tested at 10 μM; 6mer-1 Top sequence

Q: How did the Binding affinity turn out when 6mer-1-529 (RRSLCK) was run?
A: 139 Ru

Q: How did the Binding affinity turn out when 6mer-1-418 (RRQVRK) was run?
A: 123 Ru

Q: For 6mer-1-517 (KKGLCK), which Binding affinity is on record?
A: 139 Ru

Q: 6mer-1-573 (KRVLLR) was tested. Which Binding affinity did it give?
A: 126 Ru

Q: 6mer-1-538 (RRSQCK) was tested. Which Binding affinity did it give?
A: 142 Ru

Q: 6mer-1-503 (KRRLCK) was tested. Which Binding affinity did it give?
A: 151 Ru

Q: 6mer-1-539 (KRGIRK) was tested. Which Binding affinity did it give?
A: 148 Ru

Q: With 6mer-1-497 (KRRQLR) as the substance, how does the Binding affinity read?
A: 133 Ru

Q: How did the Binding affinity turn out when 6mer-1-492 (RRWRQK) was run?
A: 139 Ru

Q: For 6mer-1-469 (KKLIYR), which Binding affinity is on record?
A: 139 Ru

same assay, conditions: SPR, peptides tested at 10 μM; 6mer-1 Top sequence (top combinations)

Q: How did the Binding affinity turn out when 6mer-1-21 (RKWYLK) was run?
A: 137 Ru

Q: For 6mer-1-158 (RRLIYR), which Binding affinity is on record?
A: 131 Ru

Q: Which Binding affinity does the source give for 6mer-1-82 (KKVLYR) here?
A: 123 Ru

Q: For 6mer-1-18 (KKQFTR), which Binding affinity is on record?
A: 145 Ru

Q: For 6mer-1-145 (RKVFQR), which Binding affinity is on record?
A: 141 Ru

same assay, conditions: SPR; XRRGVRR-7mer and RRGVRRX-7mer

Q: How did the “Binding affinity, values relative to the RRGVRR sequence” value turn out when 3669 (RRGVRRW) [compound 3669] was run?
A: 134

Q: How did the “Binding affinity, values relative to the RRGVRR sequence” value turn out when 3661 (RRGVRRG) [compound 3661] was run?
A: 105

same assay, conditions: SPR; peptides tested at 10 μM; 5mer Bottom sequence

Q: How did the Binding affinity turn out when 5mer-841 (KNEMR) was run?
A: 22 Ru

Q: For 5mer-838 (RHSMK), which Binding affinity is on record?
A: 13 Ru

Q: Which Binding affinity does the source give for 5mer-868 (KMHFK) here?
A: 18 Ru

Q: With 5mer-836 (REWNR) as the substance, how does the Binding affinity read?
A: 15 Ru

Q: Which Binding affinity does the source give for 5mer-1173 (KECKR) here?
A: 30 Ru

Q: Which Binding affinity does the source give for 5mer-866 (RINWR) here?
A: 11 Ru

Q: Which Binding affinity does the source give for 5mer-1156 (KKMNK) here?
A: 13 Ru

Q: For 5mer-830 (RIDGK), which Binding affinity is on record?
A: 25 Ru

Q: 5mer-870 (RCKVK) was tested. Which Binding affinity did it give?
A: 25 Ru

Q: Which Binding affinity does the source give for 5mer-1166 (KTHEK) here?
A: 32 Ru
